Among the data in US20030152959 are activity (fold repression) values, retold here.

This data set has as its target T1, GST-ERRα1 (Homo sapiens) (UniProt P11474).
T1 sequence: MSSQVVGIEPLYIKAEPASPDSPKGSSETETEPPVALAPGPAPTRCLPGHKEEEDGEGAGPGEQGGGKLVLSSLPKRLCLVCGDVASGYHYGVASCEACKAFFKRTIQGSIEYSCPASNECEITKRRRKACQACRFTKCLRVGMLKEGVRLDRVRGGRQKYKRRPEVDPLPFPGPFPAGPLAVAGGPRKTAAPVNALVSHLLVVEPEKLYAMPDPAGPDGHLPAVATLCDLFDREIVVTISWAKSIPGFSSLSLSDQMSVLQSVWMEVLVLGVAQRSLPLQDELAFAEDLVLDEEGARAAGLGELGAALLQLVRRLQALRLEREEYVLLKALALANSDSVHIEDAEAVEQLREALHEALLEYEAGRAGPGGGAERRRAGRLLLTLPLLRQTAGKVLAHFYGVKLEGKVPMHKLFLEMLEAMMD
To be noted: cell-free transcription, HeLa nuclear extract, approximate.

The substance SV40 genome / late promoter template showed an activity (fold repression) of 3.
